The source of these data is patent publication US7799901B2, “Modulators of the function of FAS receptors and other proteins” (Yeda Research and Development Co. Ltd., priority 1995, dated 2010).

Assay [1] deals with T1, MORT-1 (Homo sapiens, UniProt Q13158, G32V).
T1 sequence (Q13158 with tags, fused parts or gaps G32V): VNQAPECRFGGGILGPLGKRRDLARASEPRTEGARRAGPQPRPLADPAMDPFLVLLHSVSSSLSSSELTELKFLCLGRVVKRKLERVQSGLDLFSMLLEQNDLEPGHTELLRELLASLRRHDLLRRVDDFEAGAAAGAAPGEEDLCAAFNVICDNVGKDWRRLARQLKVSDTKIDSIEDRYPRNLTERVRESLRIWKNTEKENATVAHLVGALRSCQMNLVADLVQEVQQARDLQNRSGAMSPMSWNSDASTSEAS
Description: Two-hybrid β-galactosidase filter assay (FIG. 5), binding to MORT-1. Set-up: the full-length MORT-1 cDNA was used (MORT 1); expressed in transfected cells; host or cells: SFY526 yeast. Conditions: two hybrid test. The protocol:
The yeast two-hybrid test was further applied to evaluate the specificity of binding of MACH to MORT-1, in particular, to define the region in MORT-1 to which MACH binds, as well as to determine which of the MACH ORFs interacts with MORT-1, the procedures being as set forth herein above in Examples 1 and 2. Briefly, various MORT-1 and MACH constructs were prepared for testing the interaction of the proteins encoded by the Gal4 DNA-binding domain and activation domain constructs within transfected SFY526 yeast cells as assessed by the β-galactosidase expression filter assay. The DNA-binding domain constructs were prepared in pGBT9 vectors and the activation domain constructs were prepared in pGAD-GM vectors. For the activation domain constructs, the full-length MACH cDNA was used (MACH), as was a construct encoding only the ORF-B (MACH B) region. Control activation domain constructs were those containing the full-length MORT-1 coding sequence (MORT 1, positive control) and those having no inserts, i.e., “empty” vectors (pGAD-GM). For the DNA-binding domain constructs, the full-length MORT-1 cDNA was used (MORT 1), as were constructs encoding only the MORT-1 […] (MORT-1DD aa 130-245). […] In the assay, the development of color was determined, where the greater the color development, the greater the interaction between the constructs encoded by the DNA-binding domain and activation domain; Color development was depicted by symbols, where “+++” and “+” indicate the development of a strong color within 30 and 90 min. of the assay, respectively, and “−−−” indicates the lack of development of color within 24 hrs. of the assay. […]
In FIG. 5, there is shown the results of the interaction of MORT-1 and MACH within transfected yeast cells. […] Their interaction was assessed by a β-galactosidase expression filter assay as described in Boldin et al (1995b). […]

Assay [2] addresses T1, MORT-1. Description: Two-hybrid β-galactosidase expression filter assay in SFY526 yeast, DNA-binding domain hybrid MORT-1. Set-up: the full-length MORT-1 cDNA was used (MORT 1); expressed in transfected cells; host or cells: SFY526 yeast. To be noted: substance as activation domain hybrid. The text has this: To isolate proteins interacting with the intracellular domain of the FAS-R, the yeast two-hybrid system was used (Fields and Song, 1989). […] In this system, the genes for the candidate interacting proteins are cloned into separate expression vectors. In one expression vector, the sequence of the one candidate protein is cloned in phase with the sequence of the GAL4 DNA-binding domain to generate a hybrid protein with the GAL4 DNA-binding-domain, and in the other vector, the sequence of the second candidate protein is cloned in phase with the sequence of the GAL4 activation domain to generate a hybrid protein with the GAL4-activation domain. The two hybrid vectors are then co-transformed into a yeast host strain having a lacZ or HIS3 reporter gene under the control of upstream GAL4 binding sites. Only those transformed host cells (cotransformants) in which the two hybrid proteins are expressed and are capable of interacting with each other, will be capable of expressing the reporter gene. […]
The yeast two-hybrid test was further applied to evaluate the specificity of binding of MACH to MORT-1, in particular, to define the region in MORT-1 to which MACH binds, as well as to determine which of the MACH ORFs interacts with MORT-1, the procedures being as set forth herein above in Examples 1 and 2. Briefly, various MORT-1 and MACH constructs were prepared for testing the interaction of the proteins encoded by the Gal4 DNA-binding domain and activation domain constructs within transfected SFY526 yeast cells as assessed by the β-galactosidase expression filter assay. […] In the assay, the development of color was determined, where the greater the color development, the greater the interaction between the constructs encoded by the DNA-binding domain and activation domain; Color development was depicted by symbols, where “+++” and “+” indicate the development of a strong color within 30 and 90 min. of the assay, respectively, and “−−−” indicates the lack of development of color within 24 hrs. of the assay. […]

On to “MACHα1: MACH isoform, cDNA SEQ ID NO: 14, amino acid SEQ ID NO: 7; contains CED3/ICE homology region”, for which, in the assay with MORT-1 [1], the “binding to MORT-1 in transfected yeast” value was “scored clearly positive”.

B1: MACHβ1: MACH isoform, cDNA SEQ ID NO: 4, amino acid SEQ ID NO: 5; lacks the CED3/ICE homology region (protein)
chain: MDFSRNLYDIGEQLDSEDLASLKFLSLDYIPQRKQEPIKDALMLFQRLQEKRMLEESNLSFLKELLFRINRLDLLITYLNTRKEEMERELQTPGRAQISAYRVMLYQISEEVSRSELRSFKFLLQEEISKCKLDDDMNLLDIFIEMEKRVILGEGKLDILKRVCAQINKSLLKIINDYEEFSKERSSSLEGSPDEFSNDFGQSLPNEKQTSGILSDHQQSQFCKSTGESAQTSQH
Take B1: the “development of color (interaction with DNA-binding domain hybrid)” value with MORT-1 [2] was “+++ (“+++” and “+” indicate the development of a strong color within 30 and 90 min. of the assay, respectively)”. Moreover, the “binding to MORT-1 in transfected yeast” value with MORT-1 [1] is listed as “binds”.

B2: MACHα1 (C360S): MACHα1 mutant in which the catalytic cysteine Cys360 is replaced by Ser (protein)
chain: MDFSRNLYDIGEQLDSEDLASLKFLSLDYIPQRKQEPIKDALMLFQRLQEKRMLEESNLSFLKELLFRINRLDLLITYLNTRKEEMERELQTPGRAQISAYRVMLYQISEEVSRSELRSFKFLLQEEISKCKLDDDMNLLDIFIEMEKRVILGEGKLDILKRVCAQINKSLLKIINDYEEFSKERSSSLEGSPDEFSNGEELCGVMTISDSPREQDSESQTLDKVYQMKSKPRGYCLIINNHNFAKAREKVPKLHSIRDRNGTHLDAGALTTTFEELHFEIKPHDDCTVEQIYEILKIYQLMDHSNMDCFICCILSHGDKGIIYGTDGQEAPIYELTSQFTGLKCPSLAGKPKVFFIQASQGDNYQKGIPVETDSEEQPYLEMDLSSPQTRYIPDEADFLLGMATVNNCVSYRNPAEGTWYIQSLCQSLRERCPRGDDILTILTEVNYEVSNKDDKKNMGKQMPQPTFTLRKKLVFPSD
With B2, in the assay with MORT-1 [1], the “binding to MORT-1 in transfected yeast” value was “bound”.

B3: MORT-1: Mediator of Receptor-induced Toxicity; protein binding the intracellular domain of FAS-R, SEQ ID NO:2 (protein)
chain: VNQAPECRFGGGILGPLGKRRDLARASEPRTEGARRAGPQPRPLADPAMDPFLVLLHSVSSSLSSSELTELKFLCLGRVVKRKLERVQSGLDLFSMLLEQNDLEPGHTELLRELLASLRRHDLLRRVDDFEAGAAAGAAPGEEDLCAAFNVICDNVGKDWRRLARQLKVSDTKIDSIEDRYPRNLTERVRESLRIWKNTEKENATVAHLVGALRSCQMNLVADLVQEVQQARDLQNRSGAMSPMSWNSDASTSEAS
For B3, in the assay with MORT-1 [2], the “development of color (interaction with DNA-binding domain hybrid)” value is “+++ (“+++” and “+” indicate the development of a strong color within 30 and 90 min. of the assay, respectively)”.
